Data taken from PMC8615749, “Human Parainfluenza Virus 3 Phosphoprotein Is a Tetramer and Shares Structural and Interaction Features with Ebola Phosphoprotein VP35” (Biomolecules, 2021).

B1: PMDL, recombinant construct of the human parainfluenza virus 3 phosphoprotein (HPIV3 P): short P_TAI (domain or fragment)
chain: SDHKPTSKGQKKISKTTTTNTDTKGQTETQTESSETQSNVDTASKIDFLAGLVIGVSMDNDTKLIQIQNEMLNLKADLKRMDESHRRLIENQREQLSLITSLISNLKIMT
notes: source: E. coli Rosetta DE3, purified (TALON His-Tag resin, SEC Superdex 75)
B2: Zaire Ebolavirus (EBOV) phosphoprotein VP35, construct of residues 65-145 (LC8 anchor 65-82 and mult (domain or fragment)
chain: NPKTRNSQTQTDPICNHSFEEVVQTLASLATVVQQQTIASESLEQRITSLENGLKPVYDMAKTISSLNRVCAEMVAKYDLL
notes: also called VP35 65-145; EBOV VP35 65-145

Key:
[1] = biological target: T1, LC8 (DYNLL1), recombinant (human, UniProt P63167 1-89); assay: ITC; conditions: both partners purified
T1 construct: also called human LC8
T1 sequence (P63167 whole entry): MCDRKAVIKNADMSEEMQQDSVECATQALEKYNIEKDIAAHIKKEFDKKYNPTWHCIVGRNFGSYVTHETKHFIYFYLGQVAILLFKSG

SEC-MALS = biological target: the molecule itself; assay: SEC-MALS

Row | Binder | Kd [1] | stoichiometry N (SEC-MALS)
1 | B1 | ~50 µM | 4
2 | B2 | 0.13 µM | 4
